Starred links: 1 amine or outer side, 2 acyl side, 3 side chain; linkers in the order of their positions; H or OH if unused. Positions of bridges follow the written chain, without caps; N, C: chain ends. *: point of attachment. C20 diacid = O=C(O)CCCCCCCCCCCCCCCCCCC(=O)*; γGlu = O=C(O)[C@H](CCC(=O)[*:2])N[*:1]
T1: human calcitonin (a) receptor (human, UniProt P30988 25-474)
T1 sequence (looked up): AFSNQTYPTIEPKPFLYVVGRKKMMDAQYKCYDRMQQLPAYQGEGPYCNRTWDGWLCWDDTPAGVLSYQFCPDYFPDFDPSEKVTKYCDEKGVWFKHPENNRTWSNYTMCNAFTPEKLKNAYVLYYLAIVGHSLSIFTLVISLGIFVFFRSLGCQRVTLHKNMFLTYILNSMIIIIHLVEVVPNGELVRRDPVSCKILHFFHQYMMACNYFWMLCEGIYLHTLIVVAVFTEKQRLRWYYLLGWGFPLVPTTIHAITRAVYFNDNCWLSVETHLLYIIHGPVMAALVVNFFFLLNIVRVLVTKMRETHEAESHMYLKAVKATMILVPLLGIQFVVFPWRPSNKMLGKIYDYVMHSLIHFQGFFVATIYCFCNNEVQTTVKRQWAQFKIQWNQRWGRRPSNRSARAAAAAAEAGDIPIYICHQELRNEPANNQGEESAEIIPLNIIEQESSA

T2: human amylin 3(a) receptor (human calcitonin receptor + RAMP-3) (human, UniProt P30988 25-474; O60896 24-148)
T2 sequence (looked up) 1: T1 sequence (looked up)
T2 sequence (looked up) 2: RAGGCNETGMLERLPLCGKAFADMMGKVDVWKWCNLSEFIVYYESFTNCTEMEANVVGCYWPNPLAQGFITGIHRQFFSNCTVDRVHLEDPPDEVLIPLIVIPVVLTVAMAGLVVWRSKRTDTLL

B1: N-alpha-[(S)-4-Carboxy-4-(19-carboxynonadecanoylamino)butyryl]-His-His-[His1,Glu14,His17,His29,His35]-pramlintide (peptide)
peptide: {C20 diacid-γGlu}-HHHCNTATCATQRLAEFLHHSSNNFGPILPHTNVGSHTY-NH2
modifications: disulfide 4-9
SMILES: CC[C@H](C)[C@H](NC(=O)[C@@H]1CCCN1C(=O)CNC(=O)[C@H](Cc1ccccc1)NC(=O)[C@H](CC(N)=O)NC(=O)[C@H](CC(N)=O)NC(=O)[C@H](CO)NC(=O)[C@H](CO)NC(=O)[C@H](Cc1c[nH]cn1)NC(=O)[C@H](Cc1c[nH]cn1)NC(=O)[C@H](CC(C)C)NC(=O)[C@H](Cc1ccccc1)NC(=O)[C@H](CCC(=O)O)NC(=O)[C@H](C)NC(=O)[C@H](CC(C)C)NC(=O)[C@H](CCCNC(=N)N)NC(=O)[C@H](CCC(N)=O)NC(=O)[C@@H](NC(=O)[C@H](C)NC(=O)[C@@H]1CSSC[C@H](NC(=O)[C@H](Cc2c[nH]cn2)NC(=O)[C@H](Cc2c[nH]cn2)NC(=O)[C@H](Cc2c[nH]cn2)NC(=O)CC[C@H](NC(=O)CCCCCCCCCCCCCCCCCCC(=O)O)C(=O)O)C(=O)N[C@@H](CC(N)=O)C(=O)N[C@@H]([C@@H](C)O)C(=O)N[C@@H](C)C(=O)N[C@@H]([C@@H](C)O)C(=O)N1)[C@@H](C)O)C(=O)N[C@@H](CC(C)C)C(=O)N1CCC[C@H]1C(=O)N[C@@H](Cc1c[nH]cn1)C(=O)N[C@H](C(=O)N[C@@H](CC(N)=O)C(=O)N[C@H](C(=O)NCC(=O)N[C@@H](CO)C(=O)N[C@@H](Cc1c[nH]cn1)C(=O)N[C@H](C(=O)N[C@@H](Cc1ccc(O)cc1)C(N)=O)[C@@H](C)O)C(C)C)[C@@H](C)O
B2: N-alpha-[(S)-4-Carboxy-4-(19-carboxynonadecanoylamino)butyryl]-His-His-[His1,His3,Glu14,His17,His29,His35]-pramlintide (peptide)
peptide: {C20 diacid-γGlu}-HHHCHTATCATQRLAEFLHHSSNNFGPILPHTNVGSHTY-NH2
modifications: disulfide 4-9
SMILES: CC[C@H](C)[C@H](NC(=O)[C@@H]1CCCN1C(=O)CNC(=O)[C@H](Cc1ccccc1)NC(=O)[C@H](CC(N)=O)NC(=O)[C@H](CC(N)=O)NC(=O)[C@H](CO)NC(=O)[C@H](CO)NC(=O)[C@H](Cc1c[nH]cn1)NC(=O)[C@H](Cc1c[nH]cn1)NC(=O)[C@H](CC(C)C)NC(=O)[C@H](Cc1ccccc1)NC(=O)[C@H](CCC(=O)O)NC(=O)[C@H](C)NC(=O)[C@H](CC(C)C)NC(=O)[C@H](CCCNC(=N)N)NC(=O)[C@H](CCC(N)=O)NC(=O)[C@@H](NC(=O)[C@H](C)NC(=O)[C@@H]1CSSC[C@H](NC(=O)[C@H](Cc2c[nH]cn2)NC(=O)[C@H](Cc2c[nH]cn2)NC(=O)[C@H](Cc2c[nH]cn2)NC(=O)CC[C@H](NC(=O)CCCCCCCCCCCCCCCCCCC(=O)O)C(=O)O)C(=O)N[C@@H](Cc2c[nH]cn2)C(=O)N[C@@H]([C@@H](C)O)C(=O)N[C@@H](C)C(=O)N[C@@H]([C@@H](C)O)C(=O)N1)[C@@H](C)O)C(=O)N[C@@H](CC(C)C)C(=O)N1CCC[C@H]1C(=O)N[C@@H](Cc1c[nH]cn1)C(=O)N[C@H](C(=O)N[C@@H](CC(N)=O)C(=O)N[C@H](C(=O)NCC(=O)N[C@@H](CO)C(=O)N[C@@H](Cc1c[nH]cn1)C(=O)N[C@H](C(=O)N[C@@H](Cc1ccc(O)cc1)C(N)=O)[C@@H](C)O)C(C)C)[C@@H](C)O
B3: N-alpha-[(S)-4-Carboxy-4-(19-carboxynonadecanoylamino)butyryl]-[Glu1,Glu14,His17]-pramlintide (peptide)
peptide: {C20 diacid-γGlu}-ECNTATCATQRLAEFLHHSSNNFGPILPPTNVGSNTY-NH2
modifications: disulfide 2-7
SMILES: CC[C@H](C)[C@H](NC(=O)[C@@H]1CCCN1C(=O)CNC(=O)[C@H](Cc1ccccc1)NC(=O)[C@H](CC(N)=O)NC(=O)[C@H](CC(N)=O)NC(=O)[C@H](CO)NC(=O)[C@H](CO)NC(=O)[C@H](Cc1c[nH]cn1)NC(=O)[C@H](Cc1c[nH]cn1)NC(=O)[C@H](CC(C)C)NC(=O)[C@H](Cc1ccccc1)NC(=O)[C@H](CCC(=O)O)NC(=O)[C@H](C)NC(=O)[C@H](CC(C)C)NC(=O)[C@H](CCCNC(=N)N)NC(=O)[C@H](CCC(N)=O)NC(=O)[C@@H](NC(=O)[C@H](C)NC(=O)[C@@H]1CSSC[C@H](NC(=O)[C@H](CCC(=O)O)NC(=O)CC[C@H](NC(=O)CCCCCCCCCCCCCCCCCCC(=O)O)C(=O)O)C(=O)N[C@@H](CC(N)=O)C(=O)N[C@@H]([C@@H](C)O)C(=O)N[C@@H](C)C(=O)N[C@@H]([C@@H](C)O)C(=O)N1)[C@@H](C)O)C(=O)N[C@@H](CC(C)C)C(=O)N1CCC[C@H]1C(=O)N1CCC[C@H]1C(=O)N[C@H](C(=O)N[C@@H](CC(N)=O)C(=O)N[C@H](C(=O)NCC(=O)N[C@@H](CO)C(=O)N[C@@H](CC(N)=O)C(=O)N[C@H](C(=O)N[C@@H](Cc1ccc(O)cc1)C(N)=O)[C@@H](C)O)C(C)C)[C@@H](C)O
B4: N-alpha-[(S)-4-Carboxy-4-(19-carboxynonadecanoylamino)butyryl]-[des1,Glu14,His17]-pramlintide (peptide)
peptide: {C20 diacid-γGlu}-CNTATCATQRLAEFLHHSSNNFGPILPPTNVGSNTY-NH2
modifications: disulfide 1-6
SMILES: CC[C@H](C)[C@H](NC(=O)[C@@H]1CCCN1C(=O)CNC(=O)[C@H](Cc1ccccc1)NC(=O)[C@H](CC(N)=O)NC(=O)[C@H](CC(N)=O)NC(=O)[C@H](CO)NC(=O)[C@H](CO)NC(=O)[C@H](Cc1c[nH]cn1)NC(=O)[C@H](Cc1c[nH]cn1)NC(=O)[C@H](CC(C)C)NC(=O)[C@H](Cc1ccccc1)NC(=O)[C@H](CCC(=O)O)NC(=O)[C@H](C)NC(=O)[C@H](CC(C)C)NC(=O)[C@H](CCCNC(=N)N)NC(=O)[C@H](CCC(N)=O)NC(=O)[C@@H](NC(=O)[C@H](C)NC(=O)[C@@H]1CSSC[C@H](NC(=O)CC[C@H](NC(=O)CCCCCCCCCCCCCCCCCCC(=O)O)C(=O)O)C(=O)N[C@@H](CC(N)=O)C(=O)N[C@@H]([C@@H](C)O)C(=O)N[C@@H](C)C(=O)N[C@@H]([C@@H](C)O)C(=O)N1)[C@@H](C)O)C(=O)N[C@@H](CC(C)C)C(=O)N1CCC[C@H]1C(=O)N1CCC[C@H]1C(=O)N[C@H](C(=O)N[C@@H](CC(N)=O)C(=O)N[C@H](C(=O)NCC(=O)N[C@@H](CO)C(=O)N[C@@H](CC(N)=O)C(=O)N[C@H](C(=O)N[C@@H](Cc1ccc(O)cc1)C(N)=O)[C@@H](C)O)C(C)C)[C@@H](C)O
B5: N-alpha-[(S)-4-Carboxy-4-(19-carboxynonadecanoylamino)butyryl]-[Glu1,Glu14,His17,Arg18]-pramlintide (peptide)
peptide: {C20 diacid-γGlu}-ECNTATCATQRLAEFLHRSSNNFGPILPPTNVGSNTY-NH2
modifications: disulfide 2-7
SMILES: CC[C@H](C)[C@H](NC(=O)[C@@H]1CCCN1C(=O)CNC(=O)[C@H](Cc1ccccc1)NC(=O)[C@H](CC(N)=O)NC(=O)[C@H](CC(N)=O)NC(=O)[C@H](CO)NC(=O)[C@H](CO)NC(=O)[C@H](CCCNC(=N)N)NC(=O)[C@H](Cc1c[nH]cn1)NC(=O)[C@H](CC(C)C)NC(=O)[C@H](Cc1ccccc1)NC(=O)[C@H](CCC(=O)O)NC(=O)[C@H](C)NC(=O)[C@H](CC(C)C)NC(=O)[C@H](CCCNC(=N)N)NC(=O)[C@H](CCC(N)=O)NC(=O)[C@@H](NC(=O)[C@H](C)NC(=O)[C@@H]1CSSC[C@H](NC(=O)[C@H](CCC(=O)O)NC(=O)CC[C@H](NC(=O)CCCCCCCCCCCCCCCCCCC(=O)O)C(=O)O)C(=O)N[C@@H](CC(N)=O)C(=O)N[C@@H]([C@@H](C)O)C(=O)N[C@@H](C)C(=O)N[C@@H]([C@@H](C)O)C(=O)N1)[C@@H](C)O)C(=O)N[C@@H](CC(C)C)C(=O)N1CCC[C@H]1C(=O)N1CCC[C@H]1C(=O)N[C@H](C(=O)N[C@@H](CC(N)=O)C(=O)N[C@H](C(=O)NCC(=O)N[C@@H](CO)C(=O)N[C@@H](CC(N)=O)C(=O)N[C@H](C(=O)N[C@@H](Cc1ccc(O)cc1)C(N)=O)[C@@H](C)O)C(C)C)[C@@H](C)O

These binders were tested against T1, human calcitonin (a) receptor (assay: cell-based or functional assay).

CTa receptor human EC50 | Binder
198 pM | B1
484 pM | B2
657 pM | B3
259 pM | B4
753 pM | B5

The binders below were run against T2, human amylin 3(a) receptor (human …) (assay: cell-based or functional assay).

Amylin receptor human EC50 | Binder
272 pM | B1
1030 pM | B2
377 pM | B3
179 pM | B4
174 pM | B5

Reference: US20130005646A1 (Novo Nordisk, published 2013)
